System: PBMC from healthy donors
Experiment: VEGF mediated Th1/Th2 polarity: PBMC stimulated 3 days with CD3/CD28 expander beads, intracellular IFN-γ/IL-4 in CD4+ T-cells
Type: cell-based, human
Conditions: 10 μg/mL IL-12 added to culture containing 16 pg/mL of VEGF
Experimental: PBMC (A) isolated from healthy donors were stimulated with PMA and ionomycin in the presence of brefeldin-A, permeabolized, and intracellularly stained for human IFN-γ (FITC) and human IL-4 (PE). PBMC were exposed to increasing concentrations of VEGF ([…]) without/with IL-12. All cells were immunostained with PC5 anti-human CD4. Purified CD4+ T-cells (B) were negatively isolated using Miltenyi beads, cultured, and stained in the same fashion as PBMC (A).
To determine the effect of VEGF on Th1 and Th2 polarity, PBMC from healthy donors were stimulated for 3 days with CD3/CD28 expander beads (Invitrogen Oslo, Norway) with and without increasing doses of recombinant VEGF (1-16 pg/mL). Cells were also cultured with 10 μg/mL recombinant human IL-12 (R and D Systems, Minneapolis, Minn.) or 8 μg/mL of a monoclonal anti-human IL-12 (R and D Systems Minneapolis, Minn. clone #24910). […]
In addition, healthy donor PBMC were stimulated with CD3^+/CD28^+ expander micro-beads for 3 days with increasing concentrations (1 pg/mL-16 pg/mL) of recombinant VEGF and assessed intracellular cytokine production of IL-4 (Th2 cytokine) and IFN-γ (Th1 cytokine) in CD4^+ T-cells at the end of in vitro culture (FIG. 8a).

B1: IL-12: recombinant human IL-12 (R and D Systems) (protein, UniProt P29459 23-219; P29460 23-328, looked up)
Interleukin-12 subunit alpha: RNLPVATPDPGMFPCLHHSQNLLRAVSNMLQKARQTLEFYPCTSEEIDHEDITKDKTSTVEACLPLELTKNESCLNSRETSFITNGSCLASRKTSFMMALCLSSIYEDLKMYQVEFKTMNAKLLMDPKRQIFLDQNMLAVIDELMQALNFNSETVPQKSSLEEPDFYKTKIKLCILLHAFRIRAVTIDRVMSYLNAS
Interleukin-12 subunit beta: IWELKKDVYVVELDWYPDAPGEMVVLTCDTPEEDGITWTLDQSSEVLGSGKTLTIQVKEFGDAGQYTCHKGGEVLSHSLLLLHKKEDGIWSTDILKDQKEPKNKTFLRCEAKNYSGRFTCWWLTTISTDLTFSVKSSRGSSDPQGVTCGAATLSAERVRGDNKEYEYSVECQEDSACPAAEESLPIEVMVDAVHKLKYENYTSSFFIRDIIKPDPPKNLQLKPLKNSRQVEVSWEYPDTWSTPHSYFSLTFCVQVQGKSKREKKDRVFTDKTSATVICRKNASISVRAQDRYYSSSWSEWASVPCS
  shift in T-helper polarity in culture containing VEGF: prevented the shift in T-helper polarity from Th1 to Th2

Source: patent US10287344B2, “Methods for reducing global chronic inflammation and the presence of melanoma” (Mayo Foundation for Medical Education and Research, priority 2008, dated 2019)
